Test results from paper PMC8426336.

Target: Trimeric form of SARS-CoV-2 RBD (T-RBD) (SARS-CoV-2 | not stated)
Assay: western blot under reduced and nonreduced conditions

Trimeric form of SARS-CoV-2 RBD (T-RBD)
stoichiometry N: 3
